This note sets out measurements from patent US20020090696.

The target of data set [1] is GST-2.5 fusion protein [GST: P08515].

B1: Rat SAPKβ (protein)
chain: MSLHFLYYCSEPTLDVKIAFCQGFDKHVDVSSVVKHYNMSKSKVDNQFYSVEVGDSTFTVLKRYQNLKPIGSGAQGIVCAAYDAVLDRNVAIKKLSRPFQNQTHAKRAYRELVLMKCVNHKNIISLLNVFTPQKTLEEFQDVYLVMELMDANLCQVIQMELDHERMSYLLYQMLCGIKHLHSAGIIHRDLKPSNIVVKSDCTLKILDFGLARTAGTSFMMTPYVVTRYYRAPEVILGMGYKENVDIWSVGCIMGEMVRHKILFPGRDYIDQWNKVIEQLGTPCPEFMKKLQPTVRNYVENRPKYAGLTFPKLFPDSLFPADSEHNKLKASQARDLLSKMLVIDPAKRISVDDALQHPYINVWYDPAEVEAPPPQIYDKQLDEREHTIEEWKELIYKEVMNSEEKTKNGVVKGQPSPSGAAVNSSESLPPSSSVNDISSMSTDQTLASDTDSSLEASAGPLGCCR
Regarding B1, in data set [1], the “in vitro kinase assay, phosphorylation of protein 2.5” value is reported as “Rat SAPKβ ... phosphorylates protein 2.5”; the “in vitro phosphorylation assay” value is recorded as “hJIP1/IB1 is a substrate for JNK3 in the same in vitro phosphorylation assay”; the “in vitro phosphorylation of a GST c-Jun fusion protein” value is “this protein greatly reduces phosphorylation of a GST c-Jun fusion protein in a concentration dependent manner”; the “phosphorylation of GST-c-Jun in a kinase reaction with c-Jun and rSAPKβ” value was “protein 2.5 shows a dose-dependent inhibition of phosphorylation of GST-c-Jun”. Further, the “phosphorylation of GST-c-Jun in a kinase reaction with c-Jun and rSAPKβ” value in the data set with GST [GST: P08515] is on record as “GST alone shows no effect”.
